Target: the molecule itself
Experiment: cryo-EM structure; ClpB hexamer with a 20-fold molar excess of casein, 10 min at room temperature in 25 mM Tris-HCl pH 7.4, 25 mM KCl, 10 mM MgCl2, 2 mM ATPγS, 1 mM DTT; single-particle cryo-EM

B1: ClpB-DWB-K476C (natural protein)
chain: not shown
notes: ClpB, bacterial disaggregase, with K476C (M-domain) and the double Walker B mutations E279A/E678A; ATPase-deficient variant used to trap substrate for cryo-EM in the presence of ATPγS; also called ClpB-K476C-DWB; ClpB-K476C/E279A/E678A; source: E. coli ΔclpB::kan cells, purified (Ni-IDA, size exclusion chromatography Superdex S200)
  stoichiometry N: 6
